Molecular target: T1, His-tagged Hmmr (mouse, UniProt Q00547 1-794)
T1 construct: Hmmr, mouse; It is not restated for the bacterial construct; also called His-Hmmr; purified Hmmr; source: bacteria BL21 (DE3), purified (Ni-NTA)
T1 sequence (looked up): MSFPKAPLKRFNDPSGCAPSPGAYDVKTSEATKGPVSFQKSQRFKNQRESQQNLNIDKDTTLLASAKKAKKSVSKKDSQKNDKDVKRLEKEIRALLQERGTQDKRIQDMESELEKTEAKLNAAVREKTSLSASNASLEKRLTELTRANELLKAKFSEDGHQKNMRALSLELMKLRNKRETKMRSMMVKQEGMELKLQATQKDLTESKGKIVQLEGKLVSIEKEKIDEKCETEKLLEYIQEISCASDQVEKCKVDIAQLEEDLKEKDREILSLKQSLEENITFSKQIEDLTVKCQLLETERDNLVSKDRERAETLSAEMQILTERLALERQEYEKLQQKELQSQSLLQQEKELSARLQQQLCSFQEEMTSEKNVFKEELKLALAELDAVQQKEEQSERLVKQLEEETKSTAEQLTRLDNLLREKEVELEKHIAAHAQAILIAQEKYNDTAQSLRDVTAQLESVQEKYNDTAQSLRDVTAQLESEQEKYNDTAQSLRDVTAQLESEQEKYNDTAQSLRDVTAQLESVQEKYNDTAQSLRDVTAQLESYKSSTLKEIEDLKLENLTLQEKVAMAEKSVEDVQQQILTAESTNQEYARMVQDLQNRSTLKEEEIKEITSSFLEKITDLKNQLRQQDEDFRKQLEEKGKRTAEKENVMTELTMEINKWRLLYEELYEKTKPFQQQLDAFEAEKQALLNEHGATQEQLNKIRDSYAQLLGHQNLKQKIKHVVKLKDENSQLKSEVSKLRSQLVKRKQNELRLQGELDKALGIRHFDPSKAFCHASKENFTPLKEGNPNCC
Test: co-IP; in vitro binding assay: purified His-tagged Hmmr and HA-tagged Trim25 mixed without RNA or with in vitro transcribed Terc-53, 5S rRNA, full-length Terc or Terc-53 mut; one sample with Terc-53 treated with RNase A; immunoprecipitated with His antibody, blot with HA antibody
Details: both partners purified

binding result: binds
B1: HA-tagged Trim25 (natural protein, mouse, UniProt Q61510 1-634, looked up)
chain: MAELNPLAEELSCSVCLELFKEPVTTPCGHNFCMSCLDETWVVQGPPYRCPQCRKVYQVRPQLQKNTVMCAVVEQFLQAEQARTPVDDWTPPARFSASSAATQVACDHCLTEIAVKTCLVCMASFCQEHLRPHFDSPAFQDHPLQSPIRDLLRRKCTQHNRLRELFCPEHGECICHICLVEHKTCSPTTLSQASADLEYKLRNKLTIMHSHINGATKALEDVRSKQQCVQDSMKRKMEQLRQEYMEMKAVIDAAETSSLRKLKEEEKRVYGKFDTIYQVLVKKKSEMQKLKAEVELIMDKGDEFEFLEKAAKLQGESTKPVYIPKIDLDHDLIMGIYQGAADLKSELKHSIKKLQKKSEEHNGSGNKGDQTQSTFKPVQPSKKTIQEKKTKKTPVAPGPPSHFSPNKLPTFGAPGQSLDSKATSPDAAPKASAAQPDSVGVKAKVLENFLTKSRTELLEYFVKVIFDYNTAHNKVSLSNKYTTASVSDGLQHYRSHPQRFTYCSQVLGLHCYKNGIHYWEVELQKNNFCGVGICYGSMERQGPESRLGRNPNSWCVEWFNNKISAWHNNVEKTLPSTKATRVGVLLNCDHGFVIFFAVTEKVHLMYKFKVDFTEALYPAFWVFSAGTTLSICSK
notes: Trim25, mouse; also called HA-Trim25; purified Trim25; source: purified
